What was measured:
heparanase = molecular target: T1, heparanase (Homo sapiens, UniProt Q9Y251); assay: Inhibition of purified active heparanase by peptides (35S-labeled ECM degradation); type: biochemical; conditions: peptide 50 μg/ml; purified active heparanase 40 ng
T1 construct: the 8 kDa portion and the 50 kDa portion form a heterodimer, which is enzymatically active
T1 sequence (Q9Y251 36-109 limits assumed): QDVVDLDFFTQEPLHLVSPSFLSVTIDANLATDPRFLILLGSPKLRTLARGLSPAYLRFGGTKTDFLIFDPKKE
T1 sequence (Q9Y251 158-543 limits assumed): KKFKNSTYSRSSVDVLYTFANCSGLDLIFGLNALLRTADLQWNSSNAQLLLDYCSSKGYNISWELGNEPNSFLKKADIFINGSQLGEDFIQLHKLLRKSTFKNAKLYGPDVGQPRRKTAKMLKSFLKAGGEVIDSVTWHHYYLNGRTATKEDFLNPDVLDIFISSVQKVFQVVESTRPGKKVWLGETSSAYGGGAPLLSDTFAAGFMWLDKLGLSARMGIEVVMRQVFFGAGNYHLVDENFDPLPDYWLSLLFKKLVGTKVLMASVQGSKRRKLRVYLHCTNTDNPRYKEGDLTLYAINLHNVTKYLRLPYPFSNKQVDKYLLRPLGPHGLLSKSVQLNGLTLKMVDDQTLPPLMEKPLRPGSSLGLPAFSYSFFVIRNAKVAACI
Procedure: (§1) FIG. 7. […] A. Cell lysates. […] B,C. Peptide analysis. […] C. Enzymatic activity.
(§2) Preparation of cell lysates, protein blotting, and measurement of heparanase enzymatic activity were carried out as described previously (Zetser, A., et al., 2006, Cancer Res 66, 1455-1463; Fux, L., et al., 2009, Cancer Res 69, 1758-1767).

Binding to heparin beads = conditions: gel electrophoresis prior to or following incubation with heparin beads
Text: as §1

Src [1] = assay: Src phosphorylation (immunoblot, densitometry) in CAG myeloma cells; type: cell-based, human; conditions: serum-free
Procedure: (§3) FIG. 3. T5 augments Src phosphorylation. A. Over expression. CAG myeloma (left) and 293 (right) cells infected with heparanase (Hepa), T5, or control empty vector (Vo) were grown in the absence (−) or presence (+) of heparin (50 μg/ml) under serum-free conditions. Total cell lysates were subjected to immunoblotting applying anti-heparanase 1453 (upper and second panels), anti-phospho-Src (p-Src, third panels), anti-Src (fourth panels) anti-phospho-Erk (p-Erk, fifth panels), and anti-Erk2 (sixth panels) antibodies. Src phosphorylation index was calculated by densitometry analysis of phosphorylated Src levels divided by the total Src values. Data is presented as average fold increase ±SE of Src phosphorylation compared with control, Vo cells, set arbitrary to a value of 1 (lower panels) of five independent experiments. B. Gene silencing. Parental 293 cells were transfected with anti-heparanase, anti-T5, or control siRNAs. Total RNA was extracted and RT-PCR analysis was performed applying T5 (upper panel), heparanase (Hepa, second panel) and GAPDH (third panel) specific primers. Corresponding cell lysates were subjected to immunoblotting applying phospho-Src (p-Src, fourth panel), Src (fifth panel), phospho-Erk (p-Erk, sixth panel) and Erk2 (seventh panel) antibodies. Src phosphorylation index was calculated as above and is shown graphically in the lower panel. Note decreased Src phosphorylation levels upon T5 down regulation.
as §2

293 cells = assay: T5 and heparanase levels in cell conditioned medium with heparin (immunoblot); type: cell-based, human; conditions: heparin 50 μg/ml, 20 h, serum-free
Text: as §1

T5 = T5 protein bands in T5-transfected 293 cells treated with tunicamycin or chloroquine (immunoblot); type: cell-based, human; conditions: tunicamycin 10, 20 μg/ml
Text: FIG. 2. Cloning and expression of T5. A. RT-PCR analysis. Total RNA was extracted from the indicated cell line and subjected to RT-PCR analysis applying T5 (upper panel), heparanase (second panel) and GAPDH (third panel) specific primers, specified in the ‘Materials and Methods’ section. B. T5 transfection. […] Control cells were transfected with an empty vector (Vo). Cell lysates (left) and cell conditioned medium (right) were blotted with anti-heparanase 1453 antibody. C. Cellular localization. Stably transfected 293 cells were triple stained for Myc-tag (T5; middle, red), the ER marker calnexin (ER, left, green), and merged with cell nuclei labeled with TO-PRO (right, blue). Cells were similarly stained with anti-Myc-tag (T5; middle, red), the Golgi marker wheat germ agglutinin-FITC (Golgi, left, green) and merged with cell nuclei labeled with TO-PRO (right, blue). […] D. Enzymatic activity. 293 cells transfected with heparanase (Hepa), T5 or control empty vector (Vo) were subjected to three freeze-thaw cycles and applied onto culture dishes coated with ^35S-labelled ECM. Release of sulfate-labeled material eluted in fractions 15-30 was evaluated as measure of heparanase activity, as described in ‘Materials and Methods’. […]

Src [2] = assay: Src phosphorylation (immunoblot, densitometry) in 293 cells; type: cell-based, human; conditions: over expressing 293 cells, serum-free
Procedure: as §3, with “(-)” for “(−)”, “Data is presented as average fold increase ±SE of Src phosphorylation compared with control, Vo cells, set arbitrary to a value of 1 (lower panels) of five independent experiments.” left out, “regulation. […]” for “regulation.”

Erk = Erk phosphorylation (immunoblot) in CAG myeloma and 293 cells; type: cell-based, human
Procedure: as §3, with “Note decreased Src phosphorylation levels upon T5 down regulation.” left out

CAG myeloma cells [3] = assay: Cell proliferation by BrdU incorporation, CAG myeloma cells; type: cell-based, human; conditions: infected CAG cells, serum-free 20 h, BrdU 2 h; control Vo 24±3%
Procedure: (§4) FIG. 4. T5 augments cell proliferation. A. BrdU incorporation. Morphology of control (Con), heparanase (Hepa)- and T5-infected CAG myeloma cell cultures is shown in the upper panels. […] Sub-confluent cultures of control (Vo), heparanase (Hepa)- and T5-infected CAG cells were grown in serum-free medium for 20 h followed by incubation with BrdU (1:1000) for 2 h. Cells were then fixed and immunostained with anti BrdU monoclonal antibody. Positively stained, red-brown nuclei were counted vs. blue, hematoxilin counter-stained nuclei. At least 1000 cells were counted for each cell type and the percentage of positively stained cells is noted in each panel. Fold increase in BrdU incorporation is shown graphically on the right panel. Gene silencing. 293 cells were transfected with anti-GFP (si-GFP), anti-heparanase (si-Hepa) or anti-T5 siRNA oligonucleotides and BrdU incorporation was evaluated as above except that cells were kept in serum-containing medium (lower panels). Note 2-fold decrease in BrdU incorporation following heparanase or T5 gene silencing (lower right panel). B. Colony formation in soft agar. […]
Cell proliferation was analyzed by BrdU incorporation using cell proliferation labeling reagent (1:1000, GE Healthcare), as described in Zetser, A., et al (2003 Cancer Res 63, 7733-7741). At least 1000 cells were counted for each cell type.

[4] = system: CAG myeloma, FaDu pharynx carcinoma and 293 cells; assay: Colony formation in soft agar; type: cell-based, human; conditions: over expression in CAG myeloma, FaDu and 293 cells
Procedure: as §4
Three ml of DMEM containing 0.5% low melt agarose (Bio-Rad, Hercules, Calif.) and 10% fetal calf serum was poured into 60 mm petri dishes. […] Colonies were visualized and counted under a microscope after 2-5 weeks, as described.

CAG myeloma cells [5] = assay: CAG myeloma tumor xenograft development and immunohistochemistry; type: in vivo, athymic nude mice
Procedure: FIG. 5. T5 enhances tumor xenograft development. Control (Vo), heparanase-, and T5-infected CAG myeloma cells were injected subcutaneously (1×10^6/0.1 ml) and tumor volume was calculated (A). At the end of the experiment on day 37, tumors were resected, photographed (A, inset) and weighted (B). C. Immunohistochemical analysis. Paraffin-embedded 5 micron sections were stained with hematoxilin & eosin (left column), anti-CD31 (second left column), and anti-smooth muscle actin (SMA, two right columns) antibodies. Note increased blood vessels density and maturation (recruitment of SMA-positive cells) in xenografts produced by heparanase- and T5-infected cells. Cells from exponential cultures of control-, heparanase-, and T5-infected CAG myeloma cells were detached with trypsin/EDTA, washed with PBS and brought to a concentration of 1×10^7 cells/ml. Cell suspension (1×10 6/0.1 ml) was inoculated subcutaneously at the right flank of 5-weeks old female athymic nude mice (n=7). Xenograft size was determined twice a week by externally measuring tumors in two dimensions using a caliper. At the end of the experiment, mice were sacrificed and xenografts were removed, weighted and fixed in formalin. Paraffin-embedded 5 micron sections were subjected to immunostaining with anti-PECAM-1 (CD31) or anti-smooth muscle actin (1A4, Sigma) antibodies, using the Envision kit, according to the manufacturer's (Dako, Glostrup, Denmark) instructions, as described (Fux, L., et al., 2009, Cancer Res 69, 1758-1767). All animal experiments were approved by the Animal Care Committee of the Technion, Haifa, Israel.

[6] = CAG xenografts, immunohistochemistry

CKKFKNSTYSSKK [CKKK]
inhibition of heparanase enzymatic activity (heparanase): failed to interact with heparin or to inhibit heparanase enzymatic activity
interaction of peptide with heparin (Binding to heparin beads): failed to interact with heparin

heparin
effect of heparin on Src phosphorylation enhanced by heparanase or T5 (Src [1]; heparin 50 μg/ml, CAG myeloma and 293 cells): not affected
T5 levels in the cell culture medium upon addition of heparin (293 cells): not affected
heparanase levels in the cell culture medium upon addition of heparin (293 cells): markedly increased

tunicamycin
amount of the ˜17 kDa T5 band (T5): markedly reduced

B1: heparanase: full length wild type human heparanase, endo-β-D-glucuronidase (protein)
chain: QDVVDLDFFTQEPLHLVSPSFLSVTIDANLATDPRFLILLGSPKLRTLARGLSPAYLRFGGTKTDFLIFDPKKESTFEERSYWQSQVNQDICKYGSIPPDVEEKLRLEWPYQEQLLLREHYQKKFKNSTYSRSSVDVLYTFANCSGLDLIFGLNALLRTADLQWNSSNAQLLLDYCSSKGYNISWELGNEPNSFLKKADIFINGSQLGEDFIQLHKLLRKSTFKNAKLYGPDVGQPRRKTAKMLKSFLKAGGEVIDSVTWHHYYLNGRTATKEDFLNPDVLDIFISSVQKVFQVVESTRPGKKVWLGETSSAYGGGAPLLSDTFAAGFMWLDKLGLSARMGIEVVMRQVFFGAGNYHLVDENFDPLPDYWLSLLFKKLVGTKVLMASVQGSKRRKLRVYLHCTNTDNPRYKEGDLTLYAINLHNVTKYLRLPYPFSNKQVDKYLLRPLGPHGLLSKSVQLNGLTLKMVDDQTLPPLMEKPLRPGSSLGLPAFSYSFFVIRNAKVAACI
Src phosphorylation increase vs control Vo cells (Src [1]; infected CAG myeloma cells): ~3 fold
Src phosphorylation enhancement vs control Vo cells (Src [2]): ~4 fold
Erk phosphorylation upon over expression (Erk): not affected
BrdU incorporation (positively stained cells) (CAG myeloma cells [3]): 49±6%
colony number, size and cell density in soft agar [4]: markedly increased
micro vessel density (CD31) (CAG myeloma cells [5]; [6]): two-fold increase in vessel density
pericytes associated with blood vessels (smooth muscle actin) (CAG myeloma cells [5]; [6]): significantly increased number of pericytes
average weight of xenografts (CAG myeloma cells [5]; day 37, subcutaneous infected CAG cells, control 58±11 mg): 648 ± 69 mg
development of tumor xenografts after day 21 vs control cells (CAG myeloma cells [5]; subcutaneous infected CAG cells): markedly enhanced
